The assay deals with nectin-1 (human) (UniProt Q15223). In words: cell-based or functional assay.
Sequence of UniProt Q15223 (Q15223 31-517): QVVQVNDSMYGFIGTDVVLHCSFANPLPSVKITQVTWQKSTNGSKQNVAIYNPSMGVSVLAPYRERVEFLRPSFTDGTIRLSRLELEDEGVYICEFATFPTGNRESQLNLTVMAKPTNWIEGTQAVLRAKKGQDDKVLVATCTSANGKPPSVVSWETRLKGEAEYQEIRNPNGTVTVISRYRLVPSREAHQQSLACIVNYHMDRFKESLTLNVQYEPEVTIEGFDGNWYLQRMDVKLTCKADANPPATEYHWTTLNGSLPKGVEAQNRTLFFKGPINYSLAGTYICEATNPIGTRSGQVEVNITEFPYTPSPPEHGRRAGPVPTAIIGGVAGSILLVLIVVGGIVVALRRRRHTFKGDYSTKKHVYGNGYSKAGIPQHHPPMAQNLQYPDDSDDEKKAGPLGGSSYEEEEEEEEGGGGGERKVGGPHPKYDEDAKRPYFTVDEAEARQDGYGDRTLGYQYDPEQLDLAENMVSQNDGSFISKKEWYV

Substance “wild-type glycoprotein D (gD) of HSV-1 strain KOS” showed an entry of QOZHG into J/C cells (X-gal staining at 24 hpi, MOI=10) of 100%.

The record behind these values is US10328136.
